Measured values taken from patent US12331106B2, “Anti-angiopoietin-2 antibodies that induce Tie2 activation” (Institute for Basic Science, priority 2018, dated 2025).
Read-outs that look alike come from different tables or passages of the source.

Experiments:
hAng2-RBD = molecular target: T1, hAng2-RBD (Homo sapiens, UniProt O15123); format: binding; conditions: for Relative Uptake (Da) Δ: 2C8
T1 construct: made in house; host or cells: HEK293F
T1 sequence (O15123 276-496): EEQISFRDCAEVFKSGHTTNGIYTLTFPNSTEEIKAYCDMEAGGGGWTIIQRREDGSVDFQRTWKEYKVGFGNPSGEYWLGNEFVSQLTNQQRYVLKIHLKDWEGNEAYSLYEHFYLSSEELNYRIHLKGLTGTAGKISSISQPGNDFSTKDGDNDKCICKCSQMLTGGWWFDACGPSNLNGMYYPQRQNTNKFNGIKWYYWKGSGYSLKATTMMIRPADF
Method: The antigenic determinants (epitopes) of hAng2 recognized by mouse monoclonal antibodies, 2C8 and 4B9, were analyzed by HDX-MS (Hydrogen/deuterium exchange-mass spectrometry) technique. HDX-MS analysis methods are described in the following articles; Houde D, Engen J R (2013) Methods Mol. Biol. 988: 269-89 and Houde et al. (2011) J. Pharm. Sci. 100 (6), 2071.
Recombinant hAng2-RBD protein was used to analyze the epitopes of antibodies 2C8 and 4B9. […] The prepared hAng2-RBD/antibody complexes were diluted 15 times with deuterium labeling buffer, labeled at various time, and then quenched with the same volume of quenching buffer. The labeling reaction time was 0 min (undeuterium), 0.33 min, 10 min, 60 min and 240 min. However, in undeuterium condition, the deuterium labeling buffer was replaced with equilibrium buffer and the reaction was immediately stopped with quenching buffer. For mass spectrometry, the deuterium labeled hAng2-RBD/antibody samples were loaded on a pepsin column and peptide digestion was proceeded.
The deuterium uptake difference between hAng2-RBD alone and the hAng2-RBD-antibody complex conditions was comparatively analyzed, and a region showing a distinct decrease in the deuterium uptake is either a peptide to which the antibody binds directly, or a structurally changed region. When the deuterium uptake difference between hAng2-RBD alone and the hAng2-RBD-antibody complex was 0.5-1 Da or more, it was considered significant.
In the case of antibody 4B9, it cannot be ruled out that an undetermined region (residues 25 to 40 of SEQ ID NO: 2) can be included in the scope of the epitope. The epitope analysis results for each antibody are shown in different colors on the 3D structure of hAng2-RBD, which was generated using PyMol software (FIG. 2).

hAng2 = molecular target: T2, hAng2 (Homo sapiens, UniProt O15123); assay: OCTET affinity of mouse monoclonal anti-Ang2 antibodies against hAng2; conditions: hAng2 fixed on AR2G biosensor, 1:1 binding model
T2 sequence (O15123 19-496): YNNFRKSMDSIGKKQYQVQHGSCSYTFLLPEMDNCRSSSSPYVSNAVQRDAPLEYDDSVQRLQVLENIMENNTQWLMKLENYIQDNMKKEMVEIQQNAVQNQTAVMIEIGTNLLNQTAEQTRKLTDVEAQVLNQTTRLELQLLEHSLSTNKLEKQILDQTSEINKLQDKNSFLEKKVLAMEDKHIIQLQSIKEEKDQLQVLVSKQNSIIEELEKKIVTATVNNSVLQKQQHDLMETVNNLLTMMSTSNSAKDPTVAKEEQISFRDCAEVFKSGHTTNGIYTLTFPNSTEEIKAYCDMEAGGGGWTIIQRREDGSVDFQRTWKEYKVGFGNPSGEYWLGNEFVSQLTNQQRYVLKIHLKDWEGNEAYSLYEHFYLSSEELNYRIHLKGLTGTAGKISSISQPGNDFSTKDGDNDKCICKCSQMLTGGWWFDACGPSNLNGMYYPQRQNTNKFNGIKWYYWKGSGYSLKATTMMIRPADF
Method: The affinity of mouse monoclonal antibody against hAng2 was measured using OCTET® system (ForteBio, real-time, label-free bio-layer interferometry system for determination of affinity, kinetics, and concentration). Specifically, buffer and samples were measured in total 200 μl/well using Black 96-well plates (96 well F-type black plates, Greiner). The biosensor used for affinity measurements was hydrated for 10 min before measurement with AR2G tip (ForteBio OCTET®). After the hydration, hAng2 was diluted in 10 mM sodium acetate, pH 6.0 buffer at a concentration of 10 μg/ml, fixed on AR2G biosensor, and blocked with 1M ethanolamine. The mouse monoclonal anti-Ang2 antibodies were diluted to 50, 25, 12.5, 6.25, 3.125, and 0 nM with 1× kinetic buffer, and subjected to association for 300 seconds and dissociation for 900 seconds. For affinity measurement (KD), the association rate (K-on) and dissociation rate (K-off) were analyzed by binding curve (global) and fitted to 1:1 binding model using OCTET® data analysis v9.0.0.10 program.

B1: 2C8: mouse monoclonal anti-Ang2 antibody; VH SEQ ID NO: 19, VL SEQ ID NO: 21; hybridoma KCLRF-BP-00417 (antibody, V domains shown)
VH: QVQLQQSGPQLVRPGASVKISCKASGYSFTSYWMHWVKQRPGQGLEWIGMIDPSDSETRLNQKFKDKASLTVDKSSSTAYMQLSSPTSGDSAVYYCARRFYYGSDWYFDVWGAGSTVTVSS
VL: DIVMTQSHKFMSTSVGDRVSITCKASQDVGTAVAWYQQKPGQSPKLLIYWASTRHTGVPDRFTGSGSGTDFTLTISNVQSEDLADYFCQQYSSYPLTFGSGTKLEIK
modifications: Heavy Chain Variable Region; Light Chain Variable Region
notes: mouse monoclonal anti-Ang2 antibody; hybridoma KCLRF-BP-00417
Relative Uptake (Da) Δ (hAng2-RBD; residues 52-60 (SEQ ID NO: 2), exposure time 0.00 min): 0.15 Da
Relative Uptake (Da) Δ (hAng2-RBD; residues 52-60 (SEQ ID NO: 2), exposure time 0.33 min): 0.21 Da
Relative Uptake (Da) Δ (hAng2-RBD; residues 52-60 (SEQ ID NO: 2), exposure time 10.00 min): 0.41 Da
Relative Uptake (Da) Δ (hAng2-RBD; residues 52-60 (SEQ ID NO: 2), exposure time 60.00 min): 0.14 Da
Relative Uptake (Da) Δ (hAng2-RBD; residues 52-60 (SEQ ID NO: 2), exposure time 240.00 min): 0.08 Da
Relative Uptake (Da) Δ (hAng2-RBD; residues 61-77 (SEQ ID NO: 2), exposure time 0.00 min): 0.08 Da
Relative Uptake (Da) Δ (hAng2-RBD; residues 61-77 (SEQ ID NO: 2), exposure time 0.33 min): 1.18 Da
Relative Uptake (Da) Δ (hAng2-RBD; residues 61-77 (SEQ ID NO: 2), exposure time 10.00 min): 1.78 Da
Relative Uptake (Da) Δ (hAng2-RBD; residues 61-77 (SEQ ID NO: 2), exposure time 60.00 min): 1.36 Da
Relative Uptake (Da) Δ (hAng2-RBD; residues 61-77 (SEQ ID NO: 2), exposure time 240.00 min): 1.31 Da
Relative Uptake (Da) Δ (hAng2-RBD; residues 61-78 (SEQ ID NO: 2), exposure time 0.00 min): 0.06 Da
Relative Uptake (Da) Δ (hAng2-RBD; residues 61-78 (SEQ ID NO: 2), exposure time 0.33 min): 1.15 Da
Relative Uptake (Da) Δ (hAng2-RBD; residues 61-78 (SEQ ID NO: 2), exposure time 10.00 min): 1.80 Da
Relative Uptake (Da) Δ (hAng2-RBD; residues 61-78 (SEQ ID NO: 2), exposure time 60.00 min): 1.33 Da
Relative Uptake (Da) Δ (hAng2-RBD; residues 61-78 (SEQ ID NO: 2), exposure time 240.00 min): 1.34 Da
Relative Uptake (Da) Δ (hAng2-RBD; residues 67-77 (SEQ ID NO: 2), exposure time 0.00 min): −0.12 Da
Relative Uptake (Da) Δ (hAng2-RBD; residues 67-77 (SEQ ID NO: 2), exposure time 0.33 min): 0.89 Da
Relative Uptake (Da) Δ (hAng2-RBD; residues 67-77 (SEQ ID NO: 2), exposure time 10.00 min): 1.58 Da
Relative Uptake (Da) Δ (hAng2-RBD; residues 67-77 (SEQ ID NO: 2), exposure time 60.00 min): 1.21 Da
Relative Uptake (Da) Δ (hAng2-RBD; residues 67-77 (SEQ ID NO: 2), exposure time 240.00 min): 1.07 Da
Relative Uptake (Da) Δ (hAng2-RBD; residues 67-78 (SEQ ID NO: 2), exposure time 0.00 min): 0.30 Da
Relative Uptake (Da) Δ (hAng2-RBD; residues 67-78 (SEQ ID NO: 2), exposure time 0.33 min): 0.95 Da
Relative Uptake (Da) Δ (hAng2-RBD; residues 67-78 (SEQ ID NO: 2), exposure time 10.00 min): 1.66 Da
Relative Uptake (Da) Δ (hAng2-RBD; residues 67-78 (SEQ ID NO: 2), exposure time 60.00 min): 1.33 Da
Relative Uptake (Da) Δ (hAng2-RBD; residues 67-78 (SEQ ID NO: 2), exposure time 240.00 min): 1.04 Da
Relative Uptake (Da) Δ (hAng2-RBD; residues 78-84 (SEQ ID NO: 2), exposure time 0.00 min): 0.00 Da
Relative Uptake (Da) Δ (hAng2-RBD; residues 78-84 (SEQ ID NO: 2), exposure time 0.33 min): −0.01 Da
Relative Uptake (Da) Δ (hAng2-RBD; residues 78-84 (SEQ ID NO: 2), exposure time 10.00 min): 0.01 Da
Relative Uptake (Da) Δ (hAng2-RBD; residues 78-84 (SEQ ID NO: 2), exposure time 60.00 min): 0.11 Da
Relative Uptake (Da) Δ (hAng2-RBD; residues 78-84 (SEQ ID NO: 2), exposure time 240.00 min): 0.36 Da
epitope of hAng2-RBD to which the antibody binds (hAng2-RBD; deuterium uptake difference 0.5-1 Da or more considered significant): residues 61 to 78 of SEQ ID NO: 2
Koff (hAng2): 3.54e-06 s⁻¹
Kon (hAng2): 77800 M⁻¹ s⁻¹
